In publication PMC8684756:

Assays:
Int^C-mCitrine-Tom7 = experiment: protein trans-splicing
Int^C-mCitrine-hFis1 = experiment: protein trans-splicing

Tom20-mCherry-Int^N
percent of Tom20-FP1 spliced to the partner (Int^C-mCitrine-Tom7): 30% | percent of Tom20-FP1 spliced to the partner (Int^C-mCitrine-hFis1): 50%
